According to US20250129168A1 (DREN BIO, published 2025):

Experiments:
[1] = molecular target: T1, human Dectin-1 (isoform not given) (human, UniProt Q9BXN2 1-247); assay: flow cytometry on Dectin-1-expressing HEK cells
T1 chain: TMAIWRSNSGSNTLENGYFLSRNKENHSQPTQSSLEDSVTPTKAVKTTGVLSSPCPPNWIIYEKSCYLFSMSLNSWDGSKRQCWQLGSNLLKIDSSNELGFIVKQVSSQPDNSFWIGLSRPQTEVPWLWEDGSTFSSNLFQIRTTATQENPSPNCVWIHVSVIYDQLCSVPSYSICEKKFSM

Trop-2 = molecular target: T2, Trop-2 (human, UniProt P09758 27-323); assay: flow cytometry on A431 cells (Trop-2-expressing)
T2 construct: whole, on cells
T2 sequence (looked up): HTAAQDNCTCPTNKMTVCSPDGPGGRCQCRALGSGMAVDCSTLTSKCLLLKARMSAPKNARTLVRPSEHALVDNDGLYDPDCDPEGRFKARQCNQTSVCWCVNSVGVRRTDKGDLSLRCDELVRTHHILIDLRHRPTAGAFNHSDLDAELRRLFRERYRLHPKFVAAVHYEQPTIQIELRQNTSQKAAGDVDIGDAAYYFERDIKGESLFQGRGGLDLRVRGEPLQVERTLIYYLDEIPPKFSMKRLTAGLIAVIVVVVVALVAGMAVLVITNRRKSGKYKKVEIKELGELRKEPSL

[2] = molecular target: T1, human Dectin-1 (isoform not given); assay: flow cytometry on Dectin-1-expressing HEK cells, 4PL fit [upper panel]
[3] = molecular target: T3, Fc gamma receptor CD16a F variant (human, UniProt P08637); assay: ELISA, plate coated with recombinant huCD16a (F variant), detection with peroxidase anti-human IgG F(ab')2, OD 450 nm - 630 nm
T3 construct: recombinant protein coated on the ELISA plate; also called recombinant huCD16a
T3 sequence (P08637 17-208 limits assumed, change not shown): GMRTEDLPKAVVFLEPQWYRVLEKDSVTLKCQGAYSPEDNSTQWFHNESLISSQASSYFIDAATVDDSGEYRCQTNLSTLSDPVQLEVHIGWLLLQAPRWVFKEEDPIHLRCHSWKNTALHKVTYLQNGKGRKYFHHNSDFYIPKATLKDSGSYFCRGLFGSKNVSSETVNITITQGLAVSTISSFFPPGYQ

[4] = molecular target: T1, human Dectin-1 (isoform not given); assay: cell-based or functional assay
[5] = molecular target: T4, cynomolgus monkey Dectin-1 (cynomolgus monkey, UniProt A0A2K5UXY6 35-281); assay: flow cytometry, cynomolgus monkey monocytes
T4 construct: whole, on cells; also called cynomolgus Dectin-1; cyno Dectin-1
T4 sequence: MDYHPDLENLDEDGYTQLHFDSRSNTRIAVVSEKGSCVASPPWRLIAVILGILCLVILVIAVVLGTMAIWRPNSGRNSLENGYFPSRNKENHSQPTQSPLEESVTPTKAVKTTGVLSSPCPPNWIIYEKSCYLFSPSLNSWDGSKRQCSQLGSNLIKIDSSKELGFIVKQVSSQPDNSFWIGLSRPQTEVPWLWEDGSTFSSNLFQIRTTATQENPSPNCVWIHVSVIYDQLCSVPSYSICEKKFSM

[6] = molecular target: T1, human Dectin-1 (isoform not given); assay: flow cytometry on human monocytes
human Dectin-1 isoform A [7] = molecular target: T5, human Dectin-1 isoform A (human, UniProt Q9BXN2 1-247); assay: flow cytometry on HEK-Blue hDectin-1a cells
T5 construct: On HEK-Blue hDectin-1a cells (Invivogen); also called hDectin-1a
T5 sequence: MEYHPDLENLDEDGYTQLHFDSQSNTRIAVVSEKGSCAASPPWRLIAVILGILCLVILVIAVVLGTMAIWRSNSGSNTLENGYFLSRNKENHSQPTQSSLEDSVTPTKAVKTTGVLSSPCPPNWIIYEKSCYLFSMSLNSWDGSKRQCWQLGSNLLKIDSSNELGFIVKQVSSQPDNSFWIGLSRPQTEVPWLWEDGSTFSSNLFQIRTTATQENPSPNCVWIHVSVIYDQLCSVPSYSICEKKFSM

human Dectin-1 isoform B [8] = molecular target: T6, human Dectin-1 isoform B (human, UniProt Q9BXN2 1-247); assay: flow cytometry on HEK-Blue hDectin-1b cells
T6 construct: On HEK-Blue hDectin-1b cells (Invivogen); also called hDectin-1b
T6 sequence: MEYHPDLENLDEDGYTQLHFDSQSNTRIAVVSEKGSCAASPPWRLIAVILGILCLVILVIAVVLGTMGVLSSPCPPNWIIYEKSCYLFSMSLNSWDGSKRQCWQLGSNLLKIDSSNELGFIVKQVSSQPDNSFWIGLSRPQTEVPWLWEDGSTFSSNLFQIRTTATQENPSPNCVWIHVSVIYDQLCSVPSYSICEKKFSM

human Dectin-1 isoform A [9] = molecular target: T5, human Dectin-1 isoform A; assay: flow cytometry on HEK293F hDectin-1a FL cells
[10] = molecular target: T1, human Dectin-1 (isoform not given); assay: flow cytometry on human monocytes (summary table)
human Dectin-1 isoform A [11] = molecular target: T5, human Dectin-1 isoform A; assay: flow cytometry on HEK-Blue hDectin-1a cells (summary table)
human Dectin-1 isoform B [12] = molecular target: T6, human Dectin-1 isoform B; assay: flow cytometry on HEK-Blue hDectin-1b cells (summary table)
human Dectin-1 isoform A [13] = molecular target: T5, human Dectin-1 isoform A; assay: flow cytometry on HEK293F hDectin-1a FL cells (summary table)

B1: 2M24/Trop-2 hIgG1 bispecific antibody (bispecific antibody, V domains shown)
VH 1: QVQLVQSGAEVKKPGASVKVSCKSSGYTFTDYYIHWVRQAPGQGLEWMGWINPNSGDTNYAQKFQGRITMTRDTSISTAYLELSRLRSDDTAVFYCARNSGSYSFGYWGQGTLVTVSS
VL 1: DIQMTQSPSSVSASVGDRVTITCRASQGISSWLAWYQQKPGKAPKLLIFGASSLQSGVPSRFSGSGSGTDFTLTVSSLQPEDFATYYCQQAYSFPFTFGPGTKVDIE
VH 2: QVQLQQSGSELKKPGASVKVSCKASGYTFTNYGMNWVKQAPGQGLKWMGWINTYTGEPTYTDDFKGRFAFSLDTSVSTAYLQISSLKADDTAVYFCARGGFGSSYWYFDVWGQGSLVTVSS
VL 2: DIQLTQSPSSLSASVGDRVSITCKASQDVSIAVAWYQQKPGKAPKLLIYSASYRYTGVPDRFSGSGSGTDFTLTISSLQPEDFAVYYCQQHYITPLTFGAGTKVEIK
notes: Human IgG1; also called anti-Dectin-1 (2M24)/anti-Trop-2 bispecific antibody
[1]
  EC50 (read off the curve): ~3 nM

B2: parental anti-Trop2 monospecific antibody (antibody, V domains shown)
VH: B1 VH 2
VL: B1 VL 2
Trop-2
  EC50 (read off the curve): ~8 nM

B3: 2M24/Nectin-4 hIgG1 bispecific antibody (bispecific antibody, V domains shown)
VH 1: B1 VH 1
VL 1: B1 VL 1
VH 2: EVQLVESGGGLVQPGGSLRLSCAASGFTFSSYNMNWVRQAPGKGLEWVSYISSSSSTIYYADSVKGRFTISRDNAKNSLSLQMNSLRDEDTAVYYCARAYYYGMDVWGQGTTVTVSS
VL 2: DIQMTQSPSSVSASVGDRVTITCRASQGISGWLAWYQQKPGKAPKFLIYAASTLQSGVPSRFSGSGSGTDFTLTISSLQPEDFATYYCQQANSFPPTFGGGTKVEIK
notes: Human IgG1
[2]
  EC50: 2.65 nM

B4: 2M24 CD20 NF (bispecific antibody)
chain 1: not shown
chain 2: not shown
chain 3: not shown
chain 4: QIVLSQSPAILSASPGEKVTMTCRASSSVSYIHWFQQKPGSSPKPWIYATSNLASGVPVRFSGSGSGTSYSLTISRVEAEDAATYYCQQWTSNPPTFGGGTKLEIKRTVAAPSVFIFPPSDEQLKSGTASVVCLLNNFYPREAKVQWKVDNALQSGNSQESVTEQDSKDSTYSLSSTLTLSKADYEKHKVYACEVTHQGLSSPVTKSFNRGEC
modifications: non-fucosylated Fc glycan
[3]
  EC50 (read off the curve): ~0.1 mg/L

B5: commercial anti-Dectin-1 antibody 15E2 (antibody, V domains shown)
VH: QWQLQQSGAELARPGASWKMSCKASGYTFTTYTMHWWKQRPGQGLEWIGYINPSSGYTNYNQKFKDKATLTADKSSSTASMQLSSLTSEDSAWYYCARERAVLVPYAMDYWGQGTSVTVSS
VL: QIVLTQSPAVMSASPGEKWTITCTASSSLSYMHWFQQKPGTSPKLWLYSTSILASGVPTRFSGSGSGTSYSLTISRMEAEDAATYYCQQRSSSPFTFGSGTKLEIK
[4]
  IFNg secretion in PBMC, immobilized antibody (fold change to isotype): 1.6 fold change to isotype
  IL6 secretion in PBMC, immobilized antibody (fold change to isotype): 2.6 fold change to isotype
  TNFa secretion in PBMC, immobilized antibody (fold change to isotype): 3 fold change to isotype
[5]
  EC50: 14 nM
[6]
  EC50: 0.6 nM
Human Dectin-1 isoform A [7]
  EC50: 1.2 nM
Human Dectin-1 isoform B [8]
  EC50: 9.3 nM
Human Dectin-1 isoform A [9]
  EC50: 1.4 nM
[10]
  EC50: 0.6 nM
Human Dectin-1 isoform A [11]
  EC50: 1.2 nM
Human Dectin-1 isoform B [12]
  EC50: 9.3 nM
Human Dectin-1 isoform A [13]
  EC50: 1.4 nM
